Target: T1, FLAG-tagged Parkin (Wild type) (human, UniProt O60260 1-465)
T1 construct: whole, on cells; Plasmid described in Imai et al. 2000; also called FLAG-Parkin; the full-length Parkin; not shown: FLAG tag
Assay: co-immunoprecipitation from 293T cells (FLAG-IP, anti-Myc Western blot)
Text: We have previously reported that the expression of Parkin is increased due to the stress induced by misfolded proteins, so as to have an effect of suppressing cell death resulting from the stress induced by misfolded proteins (Imai, Y. et al. (2000) J Biol Chem 275, 35661-35664). Against endoplasmic reticulum stress, a series of unfolded protein responses (UPR) including endoplasmic reticulum (ER)-associated degradation (ERAD), which regulate gene expression, are induced (Travers, K. J. et al., (2000) Cell 101, 249-258). ERAD degrades misfolded membrane proteins or secretory proteins with the degradation system within the cytoplasm (Plemper, R. K. et al., (1999) Trends Biochem Sci 24, 266-270). ERAD substrate was transported back through the membrane of the endoplasmic reticulum to the cytoplasm, in which it is ubiquitinated and degraded by the action of UBC6, UBC7, proteasome complex and the like (Biederer, T. et al., (1997) Science 278, 1806-1809; Bordallo, J. et al., (1998) Mol Biol Cell 9, 209-222; Gilon, T. et al., (2000) Mol Cell Biol 20, 7214-7219; Wilhovsky, S. et al., (2000) Mol Biol Cell 11, 1697-1708). […] Immunoprecipitates (FLAG-IP) immunoprecipitated with anti-FLAG monoclonal antibodies and soluble total cell extract (Total lysate) were analyzed by Western blotting (WB) using anti-FLAG or anti-Myc antibodies.

T1 sequence (O60260 whole entry): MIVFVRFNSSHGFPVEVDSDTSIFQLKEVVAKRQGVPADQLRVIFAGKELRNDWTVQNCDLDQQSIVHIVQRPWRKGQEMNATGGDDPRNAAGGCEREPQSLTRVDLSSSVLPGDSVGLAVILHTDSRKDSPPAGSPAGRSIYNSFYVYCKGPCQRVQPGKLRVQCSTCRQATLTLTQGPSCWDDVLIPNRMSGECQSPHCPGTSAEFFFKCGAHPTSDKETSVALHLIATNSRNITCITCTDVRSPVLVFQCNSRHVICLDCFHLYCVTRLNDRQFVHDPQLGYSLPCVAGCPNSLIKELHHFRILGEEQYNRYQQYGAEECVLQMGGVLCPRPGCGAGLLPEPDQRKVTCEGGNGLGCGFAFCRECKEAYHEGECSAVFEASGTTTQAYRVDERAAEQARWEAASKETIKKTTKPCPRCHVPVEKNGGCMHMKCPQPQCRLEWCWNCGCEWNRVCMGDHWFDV

| binding result | Binder |
| --- | --- |
| no binding | Myc-E2-25K (enzyme, human, UniProt P61086 2-200, looked up, whole, on cells; not shown: Myc tag) ANIAVQRIKREFKEVLKSEETSKNQIKVDLVDENFTELRGEIAGPPDTPYEGGRYQLEIKIPETYPFNPPKVRFITKIWHPNISSVTGAICLDILKDQWAAAMTLRTVLLSLQALLAAAEPDDPQDAVVANQYKQNPEMFKQTARLWAHVYAGAPVSSPEYTKKIENLCAMGFDRNAVIVALSSKSWDVETATELLLSN |
| no binding | Myc-UBCH6 (enzyme, UniProt P51965 2-193, looked up, whole, on cells; not shown: Myc tag) SDDDSRASTSSSSSSSSNQQTEKETNTPKKKESKVSMSKNSKLLSTSAKRIQKELADITLDPPPNCSAGPKGDNIYEWRSTILGPPGSVYEGGVFFLDITFTPEYPFKPPKVTFRTRIYHCNINSQGVICLDILKDNWSPALTISKVLLSICSLLTDCNPADPLVGSIATQYMTNRAEHDRMARQWTKRYAT |

— US20060051835A1 (published 2006)
